{"source": "paper PMC12608911", "origin": "cited, not measured here", "key": {"TREM-1 (Mus musculus) [1]": {"target": "TREM-1 (Mus musculus) (UniProt Q9JKE2)", "sequence (Q9JKE2 21-230)": "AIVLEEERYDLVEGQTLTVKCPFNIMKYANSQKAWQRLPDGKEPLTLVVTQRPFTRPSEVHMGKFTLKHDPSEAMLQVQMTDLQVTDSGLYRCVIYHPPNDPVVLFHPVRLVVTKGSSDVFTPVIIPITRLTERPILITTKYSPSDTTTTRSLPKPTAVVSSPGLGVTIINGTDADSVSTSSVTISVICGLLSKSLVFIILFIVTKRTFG"}, "TREM-1 (Mus musculus) [2]": {"target": "TREM-1 (Mus musculus) (UniProt Q9JKE2)", "remark": "listed apart in the source"}, "TREM-1 (Homo sapiens) [3]": {"target": "TREM-1 (Homo sapiens) (UniProt Q9NP99)"}, "TREM-1 (Homo sapiens) [4]": {"target": "TREM-1 (Homo sapiens) (UniProt Q9NP99)", "remark": "listed apart in the source"}, "TREM-1 (Homo sapiens) [5]": {"target": "TREM-1 (Homo sapiens) (UniProt Q9NP99)", "remark": "listed apart in the source"}, "TREM-1 (Homo sapiens) [6]": {"target": "TREM-1 (Homo sapiens) (UniProt Q9NP99)", "remark": "listed apart in the source"}, "TREM-1 (Mus musculus) [7]": {"target": "TREM-1 (Mus musculus) (UniProt Q9JKE2)", "remark": "listed apart in the source"}}, "note": "Read-outs that look alike come from different tables or passages of the source.", "data": [{"substance": "CIRP (from UniProt P60824)", "values": [{"measurement": "Kd", "setting": "TREM-1 (Mus musculus) [1]", "value": 120, "unit": "nM"}]}, {"substance": "HMGB1 (from UniProt P63158)", "values": [{"measurement": "Kd", "setting": "TREM-1 (Mus musculus) [2]", "value": 35.4, "unit": "µM"}]}, {"substance": "HSP70 N7 peptide (from UniProt P0DMV8)", "values": [{"measurement": "Kd", "setting": "TREM-1 (Homo sapiens) [3]", "value": 1.6, "unit": "nM"}]}, {"substance": "PGLYRP1 peptide 17 (from UniProt O75594)", "values": [{"measurement": "Kd", "setting": "TREM-1 (Homo sapiens) [4]", "value": 1.3, "unit": "nM"}]}, {"substance": "PGLYRP1 peptide N9 (from UniProt O75594)", "values": [{"measurement": "Kd", "setting": "TREM-1 (Homo sapiens) [5]", "value": 9.7, "unit": "nM"}]}, {"substance": "PGLYRP1 peptide N15 (from UniProt O75594)", "values": [{"measurement": "Kd", "setting": "TREM-1 (Homo sapiens) [6]", "value": 7.4, "unit": "nM"}]}, {"substance": "eCIRP (from UniProt P60824)", "values": [{"measurement": "Kd", "setting": "TREM-1 (Mus musculus) [7]", "value": 117, "unit": "nM"}]}]}
